# Patent US11414646 (QURATIS, dated 2022)
# T1: Toll-like receptor 4 (TLR4) of mouse bone marrow-derived dendritic cells (mouse, UniProt Q9QUK6 26-835)
# T1 construct: whole, on cells; also called TLR (toll-like receptor)-4
# T1 sequence: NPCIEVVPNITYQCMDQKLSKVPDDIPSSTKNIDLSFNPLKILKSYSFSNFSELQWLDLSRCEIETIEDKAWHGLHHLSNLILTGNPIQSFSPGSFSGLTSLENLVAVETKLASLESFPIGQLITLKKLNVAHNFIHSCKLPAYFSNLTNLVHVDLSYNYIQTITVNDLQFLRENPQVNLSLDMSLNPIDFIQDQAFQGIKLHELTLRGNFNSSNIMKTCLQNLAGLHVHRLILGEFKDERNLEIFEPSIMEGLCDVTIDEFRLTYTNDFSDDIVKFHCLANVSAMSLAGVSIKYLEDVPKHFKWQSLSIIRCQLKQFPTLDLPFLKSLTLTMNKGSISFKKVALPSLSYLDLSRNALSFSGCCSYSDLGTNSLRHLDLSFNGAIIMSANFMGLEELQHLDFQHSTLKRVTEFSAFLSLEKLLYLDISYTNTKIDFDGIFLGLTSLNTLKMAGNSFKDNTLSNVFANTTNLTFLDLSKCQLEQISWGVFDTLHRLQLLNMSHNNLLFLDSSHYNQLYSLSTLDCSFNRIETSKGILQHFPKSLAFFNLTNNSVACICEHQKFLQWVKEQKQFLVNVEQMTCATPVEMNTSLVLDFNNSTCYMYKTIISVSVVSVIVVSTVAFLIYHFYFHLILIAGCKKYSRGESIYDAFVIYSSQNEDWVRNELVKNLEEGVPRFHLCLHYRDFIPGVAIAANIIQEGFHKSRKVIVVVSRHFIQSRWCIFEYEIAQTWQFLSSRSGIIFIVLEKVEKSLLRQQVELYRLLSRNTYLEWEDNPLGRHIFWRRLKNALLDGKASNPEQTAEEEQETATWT
# B1: Recombinant Rv2299c protein (His-tagged, Mycobacterium tuberculosis H37Rv, expressed in E. coli BL21) (ligand)
# chain: MNAHVEQLEFQAEARQLLDLMVHSVYSNKDAFLRELISNASDALDKLRIEALRNKDLEVDTSDLHIEIDADKAARTLTVRDNGIGMAREEVVDLIGTLAKSGTAELRAQLREAKNAAASEELIGQFGIGFYSSFMVADKVQLLTRKAGESAATRWESSGEGTYTIESVEDAPQGTSVTLHLKPEDAEDDLHDYTSEWKIRNLVKKYSDFIAWPIRMDVERRTPASQEEGGEGGEETVTIETETLNSMKALWARPKEEVSEQEYKEFYKHVAHAWDDPLEIIAMKAEGTFEYQALLFIPSHAPFDLFDRDAHVGIQLYVKRVFIMGDCDQLMPEYLRFVKGVVDAQDMSLNVSREILQQDRQIKAIRRRLTKKVLSTIKDVQSSRPEDYRTFWTQFGRVLKEGLLSDIDNRETLLGISSFVSTYSEEEPTTLAEYVERMKDGQQQIFYATGETRQQLLKSPHLEAFKAKGYEVLLLTDPVDEVWVGMVPEFDGKPLQSVAKGEVDLSSEEDTSEAEREERQKEFADLLTWLQETLSDHVKEVRLSTRLTESPACLITDAFGMTPALARIYRASGQEVPVGKRILELNPSHPLVTGLRQAHQDRADDAEKSLAETAELLYGTALLAEGGALEDPARFAELLAERLARTL
# notes: also called Rv2299c (His); HSP90 family protein
# Target: T1, Toll-like receptor 4 (TLR4) of mouse …
# Test: figure legend for FIGS. 3D-3F: confocal microscopy, FACS and immunoprecipitation
binder,measurement,value
B1,binding result,binds
